The test deals with T1, Human CD117 antigen (recombinant CD117 ectodomain) (human, UniProt P10721 26-520).
T1 construct: also called c-kit; ectodomain of human CD117
Put plainly: chemical cross-linking, High-Mass MALDI MS and nLC-Orbitrap MS of the CD117/Ab67 complex. The method, then:
A sample of Ab67 was diluted in distilled water to a concentration of 2.7 mg/mL. 1 μL of the diluted Ab67 was then mixed with 1 μL of a matrix composed of a re-crystallized sinapinic acid matrix (10 mg/mL) in acetonitrile/water (1:1, v/v), TFA (0.1% (K200 MALDI Kit). The mixture was submitted to cross-linking using CovalX's K200 MALDI MS analysis kit. The protein solutions were mixed with 1 μl of K200 Stabilizer reagent (2 mg/ml) and incubated at room temperature. After the incubation time (180 minutes) the samples were prepared for MALDI analysis. The samples were analyzed by High-Mass MALDI MS immediately after crystallization at room temperature.
After digestion, formic acid 1% final was added to the solution. After proteolysis, 10 ul of the peptide solution generated by proteolysis were loaded onto a nano-liquid chromatography system (Ultimate 3000-RSLC). The cross-linked peptides were analyzed using Xquest version 2.0 and Stavrox 3.6. software. nLC-LTQ-Orbitrap MS/MS analysis using a nLC Ultimate 3000-RSLC system in line with a LTQ-Orbitrap mass spectrometer (Thermo Scientific) was performed.

T1 sequence (P10721 other isoform, or with tags, fused parts or gaps): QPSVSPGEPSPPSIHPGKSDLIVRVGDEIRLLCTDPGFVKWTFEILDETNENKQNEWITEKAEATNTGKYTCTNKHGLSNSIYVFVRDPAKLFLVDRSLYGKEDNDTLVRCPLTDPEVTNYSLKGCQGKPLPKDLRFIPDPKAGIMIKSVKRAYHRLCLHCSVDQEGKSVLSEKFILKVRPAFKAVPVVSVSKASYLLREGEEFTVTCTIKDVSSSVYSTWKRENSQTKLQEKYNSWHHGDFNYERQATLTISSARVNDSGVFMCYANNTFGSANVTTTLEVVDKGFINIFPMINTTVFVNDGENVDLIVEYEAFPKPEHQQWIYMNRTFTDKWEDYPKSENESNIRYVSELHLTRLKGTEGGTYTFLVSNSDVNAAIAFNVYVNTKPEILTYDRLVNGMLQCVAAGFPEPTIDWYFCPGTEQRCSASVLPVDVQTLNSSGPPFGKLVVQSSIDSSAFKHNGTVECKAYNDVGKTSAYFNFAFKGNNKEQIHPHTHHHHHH

B1: Antibody 67 (Ab67), human anti-CD117 antibody (antibody, V domains shown)
VH: EVQLVESGGGLVQPGGSLRLSCAASGFTFSDADMDWVRQAPGKGLEWVGRTRNKAGSYTTEYAASVKGRFTISRDDSKNSLYLQMNSLKTEDTAVYYCAREPKYWIDFDLWGRGTLVTVSS
VL: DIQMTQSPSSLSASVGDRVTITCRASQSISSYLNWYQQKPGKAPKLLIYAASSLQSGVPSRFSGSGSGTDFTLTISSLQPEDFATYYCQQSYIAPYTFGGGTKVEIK
notes: also called Antibody HC-67/LC-67
For the molecule B1, the binding result is recorded as “binds”.

(Values after patent US20220177578A1 (MAGENTA THERAPEUTICS, published 2022).)
